Molecular target: T1, p65-N2-His (amino acids 1-190) (UniProt Q04206 1-190)
T1 construct: NF-κB p65, N-terminal 190 residues, subcloned into pET28a; also called p65-N2-6 × His; 6 × His-tagged p65-N2 fragment; source: E. coli, purified
Assay: pull-down; in vitro: purified GST-fused MANF (or truncate, or GST) pre-bound to glutathione-agarose; purified p65-N2-6xHis loaded in 50 mM Tris-HCl pH 7.5, 100 mM NaCl, 0.1% Triton X-100, 1 hr at 4°C; eluted with 500 mM NaCl; blot with anti-His
Settings: both partners purified

T1 sequence (Q04206 1-190): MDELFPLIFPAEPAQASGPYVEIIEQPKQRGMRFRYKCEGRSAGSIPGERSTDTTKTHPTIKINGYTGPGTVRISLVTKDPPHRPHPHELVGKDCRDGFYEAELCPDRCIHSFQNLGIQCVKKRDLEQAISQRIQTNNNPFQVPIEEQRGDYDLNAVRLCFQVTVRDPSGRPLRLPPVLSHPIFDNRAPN

- binding result: binds
B1: MANF-D3-GST (C-terminal SAP-like domain, amino acids 96-182) (domain or fragment, human, UniProt P55145 96-182, looked up)
chain: LAHHIPVEKICEKLKKKDSQICELKYDKQIDLSTVDLKKLRVKELKKILDDWGETCKGCAEKSDYIRKINELMPKYAPKAASARTDL

— article PMC4313098, “Mesencephalic Astrocyte-Derived Neurotrophic Factor Is Involved in Inflammation by Negatively Regulating the NF-κB Pathway” (Scientific Reports, 2015)
